Assay results from US20130011378A1, “Stable formulations of a hyaluronan-degrading enzyme” (priority 2011, published 2013).

Key:
[1] = cited from earlier work
[2] = RP-HPLC: insulin percent purity; assay type: physicochemical; conditions: for Percent of insulin main peak: 2-8° C.
Protocol: For insulin, 20 μL was injected for each HPLC run.
The data were processed using Design-Expert® 7.0 (StatEase) and the “historical data” feature. Insulin percent purity was expressed as the percent of main insulin versus all insulin species.

[3] = Appearance (visual analysis, illuminator method); assay type: physicochemical
Protocol: Appearance of the insulin/rHuPH20 formulations was determined by qualitative visual analysis of the insulin/rHuPH20 solution in a type I glass vial. The evaluation of the coloration and clarity of the solution was determined by comparison to that of USP (or equivalent) sterile water for irrigation (SWFI). The aqueous solution was determined to be clear if its clarity was the same as that of the SWFI. The aqueous solution was determined to be colorless if it had the appearance of the SWFI. Vials were tested at room temperature and care was taken not to cause unnecessary turbulence and/or air bubbles in the solutions while swirling and/or inverting. If necessary, vials were wiped with non-shedding or lint-free wipes and 70% ethanol prior to testing. The procedure was as follows: A directional light source with a 150 W or greater lamp was turned on. The samples were prepared in a hood. Samples to be tested were gently inverted to ensure homogeneity prior to transferring >0.5 mL using aseptic technique to a Type 1 glass vial for testing. A SWFI sample was prepared in the same way. […] Color, clarity and the presence and extent of any visible particles and/or foreign matter were recorded. […]
In this method, the degree of clarity and coloration of liquids were evaluated to ensure (visually) product quality against the applicable appearance specifications. […]

## regular insulin: mature human insulin, SEQ ID NOS: 103 and 104
[1]; following subcutaneous administration
  plasma half-life: about 1.5 hours
[1]; in vivo
  Onset: 30 min
  Peak: 1 to 3 h
[2]; 50 mM NaCl, pH 7.0, 0 months
  Percent of insulin main peak: 97.64%
[2]; 50 mM NaCl, pH 7.0, 0.25 months
  Percent of insulin main peak: 97.59%
[2]; 50 mM NaCl, pH 7.0, 0.5 months
  Percent of insulin main peak: 97.50%
[2]; 50 mM NaCl, pH 7.0, 1 month
  Percent of insulin main peak: 97.44%
[2]; 50 mM NaCl, pH 7.0, 3 months
  Percent of insulin main peak: 97.24%
[2]; 50 mM NaCl, pH 7.0, 5 months
  Percent of insulin main peak: 97.73%
[2]; 50 mM NaCl, pH 7.0, 9 months
  Percent of insulin main peak: 97.20%
[2]; 50 mM NaCl, pH 7.2, 0 months
  Percent of insulin main peak: 97.64%
[2]; 50 mM NaCl, pH 7.2, 0.25 months
  Percent of insulin main peak: 97.59%
[2]; 50 mM NaCl, pH 7.2, 0.5 months
  Percent of insulin main peak: 97.56%
[2]; 50 mM NaCl, pH 7.2, 1 month
  Percent of insulin main peak: 97.46%
[2]; 50 mM NaCl, pH 7.2, 3 months
  Percent of insulin main peak: 97.47%
[2]; 50 mM NaCl, pH 7.2, 5 months
  Percent of insulin main peak: 97.75%
[2]; 50 mM NaCl, pH 7.2, 9 months
  Percent of insulin main peak: 97.27%
[2]; 50 mM NaCl, pH 7.4, 0 months
  Percent of insulin main peak: 97.58%
[2]; 50 mM NaCl, pH 7.4, 0.25 months
  Percent of insulin main peak: 97.54%
[2]; 50 mM NaCl, pH 7.4, 0.5 months
  Percent of insulin main peak: 97.48%
[2]; 50 mM NaCl, pH 7.4, 1 month
  Percent of insulin main peak: 97.47%
[2]; 50 mM NaCl, pH 7.4, 3 months
  Percent of insulin main peak: 97.45%
[2]; 50 mM NaCl, pH 7.4, 5 months
  Percent of insulin main peak: 97.74%
[2]; 50 mM NaCl, pH 7.4, 9 months
  Percent of insulin main peak: 97.27%
[2]; 50 mM NaCl, pH 7.6, 0 months
  Percent of insulin main peak: 97.65%
[2]; 50 mM NaCl, pH 7.6, 0.25 months
  Percent of insulin main peak: 97.58%
[2]; 50 mM NaCl, pH 7.6, 0.5 months
  Percent of insulin main peak: 97.33%
[2]; 50 mM NaCl, pH 7.6, 1 month
  Percent of insulin main peak: 97.44%
[2]; 50 mM NaCl, pH 7.6, 3 months
  Percent of insulin main peak: 97.35%
[2]; 50 mM NaCl, pH 7.6, 5 months
  Percent of insulin main peak: 97.66%
[2]; 50 mM NaCl, pH 7.6, 9 months
  Percent of insulin main peak: 97.34%
[2]; 80 mM NaCl, pH 7.0, 0 months
  Percent of insulin main peak: 97.65%
[2]; 80 mM NaCl, pH 7.0, 0.25 months
  Percent of insulin main peak: 97.50%
[2]; 80 mM NaCl, pH 7.0, 0.5 months
  Percent of insulin main peak: 97.30%
[2]; 80 mM NaCl, pH 7.0, 1 month
  Percent of insulin main peak: 97.20%
[2]; 80 mM NaCl, pH 7.0, 5 months
  Percent of insulin main peak: 97.81%
[2]; 80 mM NaCl, pH 7.0, 9 months
  Percent of insulin main peak: 96.18%
[2]; 80 mM NaCl, pH 7.2, 0 months
  Percent of insulin main peak: 97.57%
[2]; 80 mM NaCl, pH 7.2, 0.25 months
  Percent of insulin main peak: 97.59%
[2]; 80 mM NaCl, pH 7.2, 0.5 months
  Percent of insulin main peak: 97.30%
[2]; 80 mM NaCl, pH 7.2, 1 month
  Percent of insulin main peak: 97.45%
[2]; 80 mM NaCl, pH 7.2, 3 months
  Percent of insulin main peak: 97.34%
[2]; 80 mM NaCl, pH 7.2, 5 months
  Percent of insulin main peak: 97.64%
[2]; 80 mM NaCl, pH 7.4, 0 months
  Percent of insulin main peak: 97.56%
[2]; 80 mM NaCl, pH 7.4, 0.25 months
  Percent of insulin main peak: 97.61%
[2]; 80 mM NaCl, pH 7.4, 0.5 months
  Percent of insulin main peak: 97.51%
[2]; 80 mM NaCl, pH 7.4, 1 month
  Percent of insulin main peak: 97.43%
[2]; 80 mM NaCl, pH 7.4, 3 months
  Percent of insulin main peak: 97.43%
[2]; 80 mM NaCl, pH 7.4, 5 months
  Percent of insulin main peak: 97.75%
[2]; 80 mM NaCl, pH 7.4, 9 months
  Percent of insulin main peak: 97.29%
[2]; 80 mM NaCl, pH 7.6, 0 months
  Percent of insulin main peak: 97.63%
[2]; 80 mM NaCl, pH 7.6, 0.25 months
  Percent of insulin main peak: 97.62%
[2]; 80 mM NaCl, pH 7.6, 0.5 months
  Percent of insulin main peak: 97.52%
[2]; 80 mM NaCl, pH 7.6, 1 month
  Percent of insulin main peak: 97.37%
[2]; 80 mM NaCl, pH 7.6, 3 months
  Percent of insulin main peak: 97.64%
[2]; 80 mM NaCl, pH 7.6, 5 months
  Percent of insulin main peak: 97.67%
[2]; 80 mM NaCl, pH 7.6, 9 months
  Percent of insulin main peak: 97.31%
[2]; 110 mM NaCl, pH 7.0, 0 months
  Percent of insulin main peak: 97.64%
[2]; 110 mM NaCl, pH 7.0, 0.25 months
  Percent of insulin main peak: 97.31%
[2]; 110 mM NaCl, pH 7.0, 0.5 months
  Percent of insulin main peak: 97.57%
[2]; 110 mM NaCl, pH 7.0, 1 month
  Percent of insulin main peak: 96.64%
[2]; 110 mM NaCl, pH 7.0, 3 months
  Percent of insulin main peak: 96.10%
[2]; 110 mM NaCl, pH 7.0, 5 months
  Percent of insulin main peak: 97.79%
[2]; 110 mM NaCl, pH 7.2, 0 months
  Percent of insulin main peak: 97.62%
[2]; 110 mM NaCl, pH 7.2, 0.25 months
  Percent of insulin main peak: 97.46%
[2]; 110 mM NaCl, pH 7.2, 0.5 months
  Percent of insulin main peak: 97.35%
[2]; 110 mM NaCl, pH 7.2, 3 months
  Percent of insulin main peak: 97.49%
[2]; 110 mM NaCl, pH 7.2, 5 months
  Percent of insulin main peak: 97.61%
[2]; 110 mM NaCl, pH 7.2, 9 months
  Percent of insulin main peak: 95.91%
[2]; 110 mM NaCl, pH 7.4, 0 months
  Percent of insulin main peak: 97.65%
[2]; 110 mM NaCl, pH 7.4, 0.25 months
  Percent of insulin main peak: 97.58%
[2]; 110 mM NaCl, pH 7.4, 0.5 months
  Percent of insulin main peak: 97.39%
[2]; 110 mM NaCl, pH 7.4, 1 month
  Percent of insulin main peak: 97.36%
[2]; 110 mM NaCl, pH 7.4, 3 months
  Percent of insulin main peak: 97.36%
[2]; 110 mM NaCl, pH 7.4, 5 months
  Percent of insulin main peak: 97.79%
[2]; 110 mM NaCl, pH 7.4, 9 months
  Percent of insulin main peak: 96.91%
[2]; 110 mM NaCl, pH 7.6, 0 months
  Percent of insulin main peak: 97.58%
[2]; 110 mM NaCl, pH 7.6, 0.25 months
  Percent of insulin main peak: 97.57%
[2]; 110 mM NaCl, pH 7.6, 0.5 months
  Percent of insulin main peak: 97.60%
[2]; 110 mM NaCl, pH 7.6, 1 month
  Percent of insulin main peak: 97.52%
[2]; 110 mM NaCl, pH 7.6, 3 months
  Percent of insulin main peak: 97.42%
[2]; 110 mM NaCl, pH 7.6, 5 months
  Percent of insulin main peak: 97.61%
[2]; 110 mM NaCl, pH 7.6, 9 months
  Percent of insulin main peak: 97.31%
[2]; 140 mM NaCl, pH 7.0, 0 months
  Percent of insulin main peak: 97.65%
[2]; 140 mM NaCl, pH 7.0, 0.25 months
  Percent of insulin main peak: 97.15%
[2]; 140 mM NaCl, pH 7.0, 1 month
  Percent of insulin main peak: 96.39%
[2]; 140 mM NaCl, pH 7.0, 3 months
  Percent of insulin main peak: 96.16%
[2]; 140 mM NaCl, pH 7.0, 9 months
  Percent of insulin main peak: 95.17%
[2]; 140 mM NaCl, pH 7.2, 0 months
  Percent of insulin main peak: 97.56%
[2]; 140 mM NaCl, pH 7.2, 0.25 months
  Percent of insulin main peak: 97.37%
[2]; 140 mM NaCl, pH 7.2, 1 month
  Percent of insulin main peak: 96.62%
[2]; 140 mM NaCl, pH 7.2, 3 months
  Percent of insulin main peak: 96.60%
[2]; 140 mM NaCl, pH 7.2, 9 months
  Percent of insulin main peak: 95.49%
[2]; 140 mM NaCl, pH 7.4, 0 months
  Percent of insulin main peak: 97.64%
[2]; 140 mM NaCl, pH 7.4, 0.25 months
  Percent of insulin main peak: 97.57%
[2]; 140 mM NaCl, pH 7.4, 0.5 months
  Percent of insulin main peak: 97.33%
[2]; 140 mM NaCl, pH 7.4, 1 month
  Percent of insulin main peak: 97.23%
[2]; 140 mM NaCl, pH 7.4, 3 months
  Percent of insulin main peak: 97.38%
[2]; 140 mM NaCl, pH 7.4, 5 months
  Percent of insulin main peak: 97.73%
[2]; 140 mM NaCl, pH 7.4, 9 months
  Percent of insulin main peak: 96.10%
[2]; 140 mM NaCl, pH 7.6, 0 months
  Percent of insulin main peak: 97.64%
[2]; 140 mM NaCl, pH 7.6, 0.25 months
  Percent of insulin main peak: 97.61%
[2]; 140 mM NaCl, pH 7.6, 0.5 months
  Percent of insulin main peak: 97.41%
[2]; 140 mM NaCl, pH 7.6, 1 month
  Percent of insulin main peak: 97.51%
[2]; 140 mM NaCl, pH 7.6, 3 months
  Percent of insulin main peak: 97.35%
[2]; 140 mM NaCl, pH 7.6, 5 months
  Percent of insulin main peak: 97.56%
[2]; 140 mM NaCl, pH 7.6, 9 months
  Percent of insulin main peak: 97.07%
[2]; long term storage at 2-8° C., […] m-cresol, 0.2% phenol
  insulin main peak percentage: about 97%
[3]; NaCl 80 mM or less, pH 7.6
  time tested without precipitates: greater than 15 months
[3]; NaCl greater than 80 mM, pH 7.0
  time to form precipitates: ≤ 1 week
